The series concerns the molecule itself. Description: immunoblot after non-denaturing gel; only the 65 kDa band detected. In general terms: A western blot detects proteins with antibodies after separation by electrophoresis.

B1: Clostridium chauvoei toxin A (CctA), native secreted toxin in C. chauvoei culture supernatants (other)
chain: QENTCIVETPSEGVKTFTSSDTAYADYNCFKTNLSVTFIEDQHNNQLTALVSTEGSFIPSGLSRVGGYYQADMYWPSKYYTTLTTYDRNNRVKITKSIPTNQIDTVSVSETMGYSIGGSLSIEYGKEGPKAGGGINGSYTAQRSVTYDQPDYRTLLMKDSVNSASWEVAFNATKDGYDRDSYHGIYGNQLFMRYRLYNTGINNLTTDNNLSSLIVGGFSPKVVIALTAPKGTEESTVKVEYNRFNDQYRLRWSGTEWYGENNRNSRIDSSSESFILNWKNHTVEHAGY
notes: also called CctA toxin; mature CctA
In the case of B1, the binding result is “binds”.

For the origin of these results see US20110280900A1 (INTERVET INTERNATIONAL B V, published 2011).
